# Data published in US20220324909A1 (COHBAR, published 2022).
# Non-standard residues stand in square brackets, D forms with d. Primed or numbered codes have the meaning given here. No end group written: not given here. PEG12″ = PEG12 group on the N-terminal Lys
# Target: T1, Apelin Receptor (APJ) stably overexpressed in CHO-K1 AGTRL1 Gi cells (human, UniProt P35414 1-380)
# T1 sequence (looked up): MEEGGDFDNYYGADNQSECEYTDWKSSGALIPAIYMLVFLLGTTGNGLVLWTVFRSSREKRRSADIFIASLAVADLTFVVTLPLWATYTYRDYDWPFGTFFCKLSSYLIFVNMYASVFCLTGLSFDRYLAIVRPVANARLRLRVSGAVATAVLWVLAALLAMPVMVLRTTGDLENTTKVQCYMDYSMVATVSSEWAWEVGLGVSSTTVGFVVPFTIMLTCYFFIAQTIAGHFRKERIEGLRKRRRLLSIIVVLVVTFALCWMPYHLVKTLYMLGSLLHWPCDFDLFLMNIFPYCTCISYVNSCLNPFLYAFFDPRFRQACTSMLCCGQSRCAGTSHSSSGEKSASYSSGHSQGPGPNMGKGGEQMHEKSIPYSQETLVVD
# Assay: cell-based or functional assay
row,Binder,"cAMP levels, Percent of Pyr-Apelin-13 Control Activity (10 µM peptide, 10 µM forskolin)"
1,RRMMGMVEQCLCG[dA] (cysteine pairing not given here) [SEQ ID NO 12],24 % of Pyr-Apelin-13 control
2,MMGMVFQSL [SEQ ID NO 48],15 % of Pyr-Apelin-13 control
3,RRMMGMVFQELCG[dA] [SEQ ID NO 13],49 % of Pyr-Apelin-13 control
4,MMGMVFQ [SEQ ID NO 46],11 % of Pyr-Apelin-13 control
5,RRMMGMVFQSLCG[dA] [SEQ ID NO 15],105 % of Pyr-Apelin-13 control
6,[PEG12″]KRRIIGIVFQCLCG[dA] (cysteine pairing not given here) [SEQ ID NO 42],33 % of Pyr-Apelin-13 control
7,RRMMGMVYQCLCG[dA] (cysteine pairing not given here) [SEQ ID NO 10],70 % of Pyr-Apelin-13 control
8,MRRMMGMVFQCLCGL [SEQ ID NO 7],109 % of Pyr-Apelin-13 control
9,RRMMGMVFQCLEG[dA] [SEQ ID NO 14],39 % of Pyr-Apelin-13 control
10,MMGMVFQS [SEQ ID NO 47],-6 % of Pyr-Apelin-13 control
11,MMGMVFQSLCG[dA] [SEQ ID NO 49],14 % of Pyr-Apelin-13 control
12,KRRLLGLVFQSLCGA ((PEG12) on the N-terminal K (position 1); (dA) D-alanine at position 15) [SEQ ID NO 37],53 % of Pyr-Apelin-13 control
13,KRRMMGMVFQSLCGA ((PEG12) on the N-terminal K (position 1); (dA) D-alanine at position 15) [SEQ ID NO 36],101 % of Pyr-Apelin-13 control
14,RRMMGMVAQCLCG[dA] (cysteine pairing not given here) [SEQ ID NO 11],49 % of Pyr-Apelin-13 control

# Target: ProLink tagged human APJ (Apelin Receptor) in CHO-K1 AGTRL1 β-Arrestin cells (human, UniProt P35414 1-380)
# Assay: cell-based or functional assay
row,Binder,"β-Arrestin recruitment, Percent of Apelin-13 Control Activity (10 µM peptide)"
1,RRMMGMVEQCLCG[dA] (cysteine pairing not given here) [SEQ ID NO 12],-1 % of Apelin-13 control
2,MMGMVFQSL [SEQ ID NO 48],1 % of Apelin-13 control
3,RRMMGMVFQELCG[dA] [SEQ ID NO 13],1 % of Apelin-13 control
4,MMGMVFQ [SEQ ID NO 46],0 % of Apelin-13 control
5,RRMMGMVFQSLCG[dA] [SEQ ID NO 15],40 % of Apelin-13 control
6,[PEG12″]KRRIIGIVFQCLCG[dA] (cysteine pairing not given here) [SEQ ID NO 42],8 % of Apelin-13 control
7,RRMMGMVYQCLCG[dA] (cysteine pairing not given here) [SEQ ID NO 10],3 % of Apelin-13 control
8,MRRMMGMVFQCLCGL [SEQ ID NO 7],91 % of Apelin-13 control
9,RRMMGMVFQCLEG[dA] [SEQ ID NO 14],0 % of Apelin-13 control
10,MMGMVFQS [SEQ ID NO 47],1 % of Apelin-13 control
11,MMGMVFQSLCG[dA] [SEQ ID NO 49],1 % of Apelin-13 control
12,KRRLLGLVFQSLCGA ((PEG12) on the N-terminal K (position 1); (dA) D-alanine at position 15) [SEQ ID NO 37],12 % of Apelin-13 control
13,KRRMMGMVFQSLCGA ((PEG12) on the N-terminal K (position 1); (dA) D-alanine at position 15) [SEQ ID NO 36],63 % of Apelin-13 control
14,RRMMGMVAQCLCG[dA] (cysteine pairing not given here) [SEQ ID NO 11],0 % of Apelin-13 control

# Target: T1, Apelin Receptor (APJ) stably …
# Assay: cell-based or functional assay
# Remark: another data set of the same source
row,Binder,"IC50, inhibition of forskolin-stimulated cAMP accumulation"
1,RRMMGMVFQSLCG[dA] [SEQ ID NO 15],4490 nM
2,[PEG12″]KRRIIGIVFQCLCG[dA] (cysteine pairing not given here) [SEQ ID NO 42],4380 nM
3,RRIIGIVFQSLCG[dA] [SEQ ID NO 43],2070 nM
4,MRRMMGMVFQCLCGL [SEQ ID NO 7],1240 nM
5,KRRLLGLVFQSLCGA ((PEG12) on the N-terminal K (position 1); (dA) D-alanine at position 15) [SEQ ID NO 37],2500 nM
6,KRRMMGMVFQSLCGA ((PEG12) on the N-terminal K (position 1); (dA) D-alanine at position 15) [SEQ ID NO 36],1600 nM
